From US20230220007A1, “SETD7 EPIGENETIC MODULATORS” (Biorchestra Co., Ltd., priority 2020, published 2023)
Where a chain is given by its changes, count along the chain named. Names may count otherwise.

B1: SETD7 T332E/S340D/S345D: SETD7-GFP mutant with three phospho-mimicking substitutions (protein, UniProt Q8WTS6 1-366, looked up, variant T332E S340D S345D)
Histone-lysine …: MDSDDEMVEEAVEGHLDDDGLPHGFCTVTYSSTDRFEGNFVHGEKNGRGKFFFFDGSTLEGYYVDDALQGQGVYTYEDGGVLQGTYVDGELNGPAQEYDTDGRLIFKGQYKDNIRHGVCWIYYPDGGSLVGEVNEDGEMTGEKIAYVYPDERTALYGKFIDGEMIEGKLATLMSTEEGRPHFELMPGNSVYHFDKSTSSCISTNALLPDPYESERVYVAESLISSAGEGLFSKVAVGPNTVMSFYNGVRITHQEVDSRDWALNGNTLSLDEETVIDVPEPYNHVSKYCASLGHKANHSFTPNCIYDMFVHPRFGPIKCIRTLRAVEADEELEVAYGYDHDPPGKDGPEAPEWYQVELKAFQATQQK
modifications: GFP tag
notes: SETD7-GFP mutant with three phospho-mimicking substitutions
B2: SETD7 T332A: SETD7 mutant, Thr332 mutated to alanine; cannot be phosphorylated (protein)
chain: B1 Histone-lysine … with E332A, D340S, D345S
B3: SETD7 H297A/T332E/S340D/S345D: catalytically inert phospho-mimicking SETD7 mutant due to the H297A mutation (protein)
chain: B1 Histone-lysine … with H297A
B4: SETD7 S340D: SETD7-GFP mutant with phospho-mimicking substitution S340D (protein, UniProt Q8WTS6 1-366, looked up, variant S340D)
Histone-lysine …: B1 Histone-lysine … with E332T, D345S
modifications: GFP tag
B5: SETD7 S340A: SETD7 mutant, Ser340 mutated to alanine; cannot be phosphorylated (protein)
chain: B1 Histone-lysine … with E332T, D340A, D345S
B6: SETD7 T332E: SETD7-GFP mutant with phospho-mimicking substitution T332E (protein, UniProt Q8WTS6 1-366, looked up, variant T332E)
Histone-lysine …: B1 Histone-lysine … with D340S, D345S
modifications: GFP tag
B7: S345: SETD7 mutant, Ser345 mutated to alanine (phospho-disrupting mutation) (protein, UniProt Q8WTS6 1-366, looked up, variant S345A)
Histone-lysine …: B1 Histone-lysine … with E332T, D340S, D345A
B8: S225A: SETD7 mutant, Ser225 mutated to alanine (phospho-disrupting mutation) (protein)
chain: B1 Histone-lysine … with S225A, E332T, D340S, D345S
B9: WT SETD7: wild type histone-lysine N-methyltransferase SETD7, full length (SEQ ID NO: 37) (protein)
chain: B1 Histone-lysine … with E332T, D340S, D345S
B10: Y305A: SETD7 mutant, Tyr305 mutated to alanine (phospho-disrupting mutation) (protein)
chain: B1 Histone-lysine … with Y305A, E332T, D340S, D345S
B11: H297A: SETD7 mutant protein with H297A mutation, abolishes methyltransferase activity (protein)
chain: B1 Histone-lysine … with H297A, E332T, D340S, D345S
B12: Y245A: SETD7 substitution mutant at position 245 (protein)
chain: B1 Histone-lysine … with Y245A, E332T, D340S, D345S
B13: Q361A: SETD7 substitution mutant at position 361 (protein)
chain: B1 Histone-lysine … with E332T, D340S, D345S, Q361A
B14: Q354A: SETD7 substitution mutant at position 354 (protein)
chain: B1 Histone-lysine … with E332T, D340S, D345S, Q354A
B15: K358A: SETD7 substitution mutant at position 358 (protein)
chain: B1 Histone-lysine … with E332T, D340S, D345S, K358A
B16: Y353A: SETD7 substitution mutant at position 353 (protein)
chain: B1 Histone-lysine … with E332T, D340S, D345S, Y353A
B17: W352A: SETD7 substitution mutant at position 352 (protein)
chain: B1 Histone-lysine … with E332T, D340S, D345S, W352A
B18: Q365A: SETD7 substitution mutant at position 365 (protein)
chain: B1 Histone-lysine … with E332T, D340S, D345S, Q365A
B19: K366A: SETD7 substitution mutant at position 366 (protein)
chain: B1 Histone-lysine … with E332T, D340S, D345S, K366A
B20: E356A: SETD7 substitution mutant at position 356 (protein)
chain: B1 Histone-lysine … with E332T, D340S, D345S, E356A
B21: E351A: SETD7 substitution mutant at position 351 (protein)
chain: B1 Histone-lysine … with E332T, D340S, D345S, E351A
B22: K294A: SETD7 substitution mutant at position 294 (protein)
chain: B1 Histone-lysine … with K294A, E332T, D340S, D345S
B23: D270A: SETD7 substitution mutant at position 270 (protein)
chain: B1 Histone-lysine … with D270A, E332T, D340S, D345S
B24: E330A: SETD7 substitution mutant at position 330 (protein)
chain: B1 Histone-lysine … with E330A, E332T, D340S, D345S
B25: E254A: SETD7 substitution mutant at position 254 (protein)
chain: B1 Histone-lysine … with E254A, E332T, D340S, D345S
B26: E329A: SETD7 substitution mutant at position 329 (protein)
chain: B1 Histone-lysine … with E329A, E332T, D340S, D345S
B27: Y335A: SETD7 substitution mutant at position 335 (protein)
chain: B1 Histone-lysine … with E332T, Y335A, D340S, D345S
B28: N296A: SETD7 substitution mutant at position 296 (protein)
chain: B1 Histone-lysine … with N296A, E332T, D340S, D345S
B29: N302A: SETD7 substitution mutant at position 302 (protein)
chain: B1 Histone-lysine … with N302A, E332T, D340S, D345S

Tested on: human retinal pigment epithelial (RPE) cells
Test: Cellular distribution of SETD7-GFP mutants under low or high glucose (GFP fluorescence)
Type: cell-based
Details: SETD7-GFP mutants in human RPE cells; low glucose and high glucose conditions; FIG. 4
Method: SETD7-GFP mutants with phospho-mimicking substitutions at positions 332, 340 and/or 345 were prepared. The phospho-mimicking substitutions were T332E, S340D, and/or S345D. The SETD7-GFP mutants were expressed in human retinal pigment epithelial (RPE) cells. The fluorescence intensity emitted from the GFP signal in the cells under high or low glucose condition was measured.

| Molecule | translocation to the nucleus |
| --- | --- |
| B1 | translocated to the nucleus |
| B2 | not translocated to the nucleus |
| B3 | translocated to the nucleus |
| B4 | translocated to the nucleus |
| B5 | not translocated to the nucleus |
| B6 | translocated to the nucleus |

Tested on: human retinal pigment epithelial cells (RPE)
Test: Nuclear translocation of SETD7 alanine (phospho-disrupting) mutants in response to high glucose levels
Type: cell-based
Details: mutants expressed in human RPE cells; FIG. 3
Text: To identify the potential role of phosphorylatable sites located in the C-terminal regions of SETD7 (FIG. 1), phosphorylatable serines, threonines and tyrosines at positions 225, 305, 332, 340, and 345 where mutated to alanine (phospho-disrupting mutations) and expressed in human retinal pigment epithelial cells (RPE). Nuclear translocation or lack thereof in response to high glucose levels was examined (FIG. 2).
SETD7 cellular distribution changed in response to changes in glucose levels for wild type SETD7 (WT) and SETD7 mutants comprising a S225A substitution or a Y305A substitutions.

| Molecule | nuclear translocation in response to changes in glucose |
| --- | --- |
| B7 | did not translocate to the nucleus |
| B8 | translocated normally to the nucleus |
| B9 | translocated normally to the nucleus |
| B2 | did not translocate to the nucleus |
| B5 | did not translocate to the nucleus |
| B10 | translocated normally to the nucleus |

Tested on: histone
Test: not given
Details: His297 mutation; cited from earlier work

| Molecule | methyltransferase activity (enzymatic activity) |
| --- | --- |
| B11 | abolishes |

Same assay, conditions: SETD7 substitution mutants; cited from earlier work

| Molecule | monomethyl transferase activity |
| --- | --- |
| B12 | significantly reduces |
| B13 | partial loss |
| B14 | partial loss |
| B15 | partial loss |
| B16 | complete loss |
| B17 | complete loss |
| B18 | partial loss |
| B19 | partial loss |
| B20 | partial loss |
| B21 | partial loss |

Same assay, conditions: cited from earlier work

| Molecule | dimethyltransferase activity | catalytic activity (e.g., monomethyl transferase activity) |
| --- | --- | --- |
| B12 | increases |  |
| B22 |  | reduces |

Same assay, conditions: mutagenic studies on SETD7; cited from earlier work

| Molecule | histone monomethyl transferase activity |
| --- | --- |
| B12 | partial or complete loss |
| B23 | partial or complete loss |
| B24 | partial or complete loss |
| B25 | partial or complete loss |
| B26 | partial or complete loss |
| B27 | partial or complete loss |
| B11 | partial or complete loss |
| B28 | partial or complete loss |
| B29 | partial or complete loss |
